Source: publication PMC6677837, “A Novel Cell-Penetrating Antibody Fragment Inhibits the DNA Repair Protein RAD51” (Scientific Reports, 2019)

T1: Recombinant human RAD51 (residues 21-339, C-terminal Leu-Glu-His6) (human, UniProt Q06609 21-339)
T1 chain: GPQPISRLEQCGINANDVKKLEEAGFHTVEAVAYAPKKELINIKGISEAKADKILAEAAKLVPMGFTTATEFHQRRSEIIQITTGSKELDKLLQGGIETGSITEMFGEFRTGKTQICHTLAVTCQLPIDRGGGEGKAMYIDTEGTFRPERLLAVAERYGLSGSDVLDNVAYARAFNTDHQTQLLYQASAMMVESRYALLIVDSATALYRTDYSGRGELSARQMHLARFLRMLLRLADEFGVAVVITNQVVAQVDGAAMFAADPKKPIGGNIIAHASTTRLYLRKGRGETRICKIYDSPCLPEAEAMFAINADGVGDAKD

B1: Fab-F2-iPTD (Fab, V domains shown)
VH: EVQLVESGGGLVQPGGSLRLSCAASGFTFSSYGMHWVRQAPGKGLEWVAVISYDGSNKYYADSVKGRFTISADTSKNTAYLQMNSLRAEDTAVYYCARTYSYASRGWYDYWGQGTLVTVSS
VL: DIQMTQSPSSLSASVGDRVTITCRASQGISNYLAWYQQKPGKAPKLLIYAASSLQSGVPSRFSGSRSGTDFTLTISSLQPEDFATYYCQQGTYLPLTFGQGTKVEIK
notes: as the heavy chain of m2; as the light chain of m2; also called cell-penetrating Fab-F2-iPTD; source: E. coli, pCW-Fab-F2-iPTD, purified
B2: Fab-F2 (Fab, V domains shown)
VH: B1 VH
VL: B1 VL
notes: Human IgG1 synthetic Fab from phage Library S (randomised CDRL3 and CDRH3, canonical other CDRs); In the Western blots the Fab was labelled with IRDye 800CW; also called IRDye 800CW-labeled Fab-F2; source: also in small-scale E. coli lysate

Tests used:
[1] = target: T1, Recombinant human RAD51 (residues …); assay: BLI
[2] = target: T2, Recombinant human RAD51 (residues 21-339, C-terminal Leu-Glu-His6) (Homo sapiens, UniProt Q06609); assay: BLI; Fab (about 0.5 nm) immobilised on Protein L biosensors, range of RAD51 concentrations in solution; 25 °C, PBS pH 7.4 with 0.1% Tween 20 and 10 mg/mL BSA; global fit, 1:1 Langmuir model, reference well subtracted; conditions: both partners purified
T2 construct: RAD51, Homo sapiens, residues 21-339, inserted between the NcoI and XhoI sites of pET28a; Cloning at the NcoI site may add a start methionine; also called purified RAD51; plasmid-expressed RAD51; source: E. coli Rosetta(DE3), pET28a-RAD51, purified (ammonium sulfate, DE52 anion exchange, HiTrap Ni-chelating column); also in E. coli whole cell lysate

[3] = target: T2, Recombinant human RAD51 (residues …); assay: cell-based or functional assay
RAD51 = RAD51 (Homo sapiens, UniProt Q06609 21-339); assay: BLI; no Fab-F2; 1:1 Langmuir global fit; BLI on streptavidin biosensors; 0.5 uM RAD51 for the inhibition assay; buffer, salt, pH and temperature not given in the material (RAD51 dialyzed into PBS); conditions: protein: recombinant; label: 5'-biotin; single strand

Binder	koff [1] [s⁻¹]	Kd [2] [µM]	koff, fold lower than for Fab-F2 [2] [fold]	kon, fold lower than for Fab-F2 [2] [fold]	koff [2] [s⁻¹]	kon [2] [M⁻¹ s⁻¹]	inhibition of RAD51 (500 nM, pre-incubated with various concentrations of Fab-F2) binding to immobilised 5'-biotinylated oligo(dT)36 ssDNA, by BLI; IC50 [3] [µM]	Kd (RAD51) [µM]
B1	0.000658	0.0182	~2	~2	–	–	–	–
B2	–	0.0081 ± 0.00021	–	–	0.000156	19300	< 0.125	–
TTTTTTTTTTTTTTTTTTTTTTTTTTTTTTTTTTTT (ssDNA) [oligo(dT)36]	–	–	–	–	–	–	–	0.0276 ± 0.00475
